For the test, the target named is EGFP-mPiezo1 (murine Piezo1 fused to EGFP) (murine) (UniProt E2JF22).
UniProt E2JF22, sequence (E2JF22 whole entry, the tested form may be a part): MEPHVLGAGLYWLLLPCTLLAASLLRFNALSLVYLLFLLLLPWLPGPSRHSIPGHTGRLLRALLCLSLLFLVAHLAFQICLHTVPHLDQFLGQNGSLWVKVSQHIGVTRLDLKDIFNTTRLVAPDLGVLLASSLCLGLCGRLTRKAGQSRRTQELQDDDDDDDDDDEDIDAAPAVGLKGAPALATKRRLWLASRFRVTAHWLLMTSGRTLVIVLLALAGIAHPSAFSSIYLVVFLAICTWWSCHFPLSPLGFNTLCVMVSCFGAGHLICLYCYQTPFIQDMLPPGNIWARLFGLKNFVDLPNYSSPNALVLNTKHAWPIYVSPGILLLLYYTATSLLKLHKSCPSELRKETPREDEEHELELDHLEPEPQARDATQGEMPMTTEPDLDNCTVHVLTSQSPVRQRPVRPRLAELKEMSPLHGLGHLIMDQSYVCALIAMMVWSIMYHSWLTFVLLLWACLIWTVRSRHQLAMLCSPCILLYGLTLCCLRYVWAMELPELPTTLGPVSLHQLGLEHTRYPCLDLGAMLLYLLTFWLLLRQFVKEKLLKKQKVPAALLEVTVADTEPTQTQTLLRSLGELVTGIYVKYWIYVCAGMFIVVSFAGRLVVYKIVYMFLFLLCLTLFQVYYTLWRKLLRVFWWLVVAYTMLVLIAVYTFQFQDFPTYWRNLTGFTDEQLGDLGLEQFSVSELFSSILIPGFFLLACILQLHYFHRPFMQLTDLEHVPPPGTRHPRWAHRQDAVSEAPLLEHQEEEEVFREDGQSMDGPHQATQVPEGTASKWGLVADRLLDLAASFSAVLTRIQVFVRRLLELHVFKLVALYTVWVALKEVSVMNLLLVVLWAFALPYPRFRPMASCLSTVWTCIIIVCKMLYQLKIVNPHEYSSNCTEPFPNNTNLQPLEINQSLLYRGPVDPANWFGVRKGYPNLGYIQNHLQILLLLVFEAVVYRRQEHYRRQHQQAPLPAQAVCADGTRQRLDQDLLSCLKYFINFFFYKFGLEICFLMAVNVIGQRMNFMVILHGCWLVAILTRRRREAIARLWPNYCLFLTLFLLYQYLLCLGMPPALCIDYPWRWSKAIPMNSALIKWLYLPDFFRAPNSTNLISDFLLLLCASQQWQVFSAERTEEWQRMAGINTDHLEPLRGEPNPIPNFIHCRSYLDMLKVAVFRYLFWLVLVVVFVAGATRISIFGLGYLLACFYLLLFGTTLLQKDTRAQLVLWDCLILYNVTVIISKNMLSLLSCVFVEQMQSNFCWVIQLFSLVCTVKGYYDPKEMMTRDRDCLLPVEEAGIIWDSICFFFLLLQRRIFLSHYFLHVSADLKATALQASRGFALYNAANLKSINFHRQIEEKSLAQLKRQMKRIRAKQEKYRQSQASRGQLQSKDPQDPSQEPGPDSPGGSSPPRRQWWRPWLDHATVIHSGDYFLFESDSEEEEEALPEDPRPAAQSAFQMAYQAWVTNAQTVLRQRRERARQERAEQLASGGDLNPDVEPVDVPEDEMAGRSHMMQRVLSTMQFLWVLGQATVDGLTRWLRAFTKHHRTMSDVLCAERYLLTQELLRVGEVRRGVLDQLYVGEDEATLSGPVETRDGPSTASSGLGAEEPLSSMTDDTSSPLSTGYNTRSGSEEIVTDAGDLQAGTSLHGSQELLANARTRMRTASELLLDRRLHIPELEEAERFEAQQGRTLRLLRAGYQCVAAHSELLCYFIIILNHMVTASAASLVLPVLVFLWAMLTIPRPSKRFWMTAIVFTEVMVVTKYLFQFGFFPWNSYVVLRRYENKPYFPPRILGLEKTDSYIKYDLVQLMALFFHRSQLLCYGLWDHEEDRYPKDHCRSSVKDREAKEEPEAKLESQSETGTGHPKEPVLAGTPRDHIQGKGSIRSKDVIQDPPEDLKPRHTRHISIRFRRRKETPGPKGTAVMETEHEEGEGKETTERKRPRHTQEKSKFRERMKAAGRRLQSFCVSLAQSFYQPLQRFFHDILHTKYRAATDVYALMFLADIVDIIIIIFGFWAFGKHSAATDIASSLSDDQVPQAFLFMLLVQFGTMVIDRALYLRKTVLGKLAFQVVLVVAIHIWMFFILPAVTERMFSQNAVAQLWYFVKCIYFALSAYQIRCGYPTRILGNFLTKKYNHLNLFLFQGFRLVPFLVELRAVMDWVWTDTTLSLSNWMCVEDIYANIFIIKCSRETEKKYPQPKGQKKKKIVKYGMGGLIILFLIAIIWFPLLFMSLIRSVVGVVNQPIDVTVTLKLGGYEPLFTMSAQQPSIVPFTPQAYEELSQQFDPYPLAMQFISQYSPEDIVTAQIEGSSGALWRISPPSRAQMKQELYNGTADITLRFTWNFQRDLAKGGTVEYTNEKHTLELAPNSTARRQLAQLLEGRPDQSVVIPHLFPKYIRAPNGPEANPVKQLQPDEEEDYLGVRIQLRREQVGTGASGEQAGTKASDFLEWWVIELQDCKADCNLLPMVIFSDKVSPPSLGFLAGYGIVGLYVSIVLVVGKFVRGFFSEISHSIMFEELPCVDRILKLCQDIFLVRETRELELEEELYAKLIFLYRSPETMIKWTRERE

In the case of LecB-S22A mutant (natural protein), the average stretch-induced current at −80 mmHg, EGFP-mPiezo1-overexpressing H1299 cells, LecB-S22A for 3 h (not significantly changed compared to untreated control cells) is -36.5 pA.

These data come from article PMC12618757.
